Here are results for 30 sequences from the nanobody polyreactivity screen of Harvey et al. (2022).

The nature of the data set: yeast display, Sf9 membrane polyspecificity reagent, FACS + sequencing; frameworks hold sequencing errors. A digest of the protocol: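 Nanobodies from a synthetic yeast display library (Saccharomyces cerevisiae BJ5465), induced 36–48 hours with galactose, were stained 1 hour at 4 °C with 10% biotinylated, detergent-solubilized Sf9 membrane reagent, enriched on streptavidin microbeads, then FACS-sorted. Anti-HA (expression) and streptavidin (reagent binding) fluorescence set low and high (top ~1%) gates. Polyreactivity labels come from the gate of origin. Genes were colony-PCR amplified, MiSeq 2 × 250 sequenced and filtered by CDR length.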
“QVQLVESGGGLVQAGGSLRISCAASGNAMGWYRQAPGKERELVAVITGGGSTYYADSVKGRFTISRDNAKNTVYLQMNSLKPEDTAVYYCAAKGPYYKSSRTGDYWGQGTQVTVSS”: the “polyreactivity (PSR sort gate)” value is recorded as “low polyreactivity”. Consider “QVQLVESGGGLVQAGGSLRLSCAASGLTFIDYAMGWYRQAPGKERELVAAITKSGGGTYYADSVKGRFTISRDNAKNTVYLQMNSLKPEDTAVYYCAAVYRTRLYYYWGQGTQVTVSS”, for which the “polyreactivity (PSR sort gate)” value is listed as “high polyreactivity”. For “QVQLVESGGGLVQAGGSLRLSCAASGSILEYYAMGWYRQAPGKERELVAGISSAGNTYYADSVKGRFTISRDNAKNTVYLQMNSLKPEDTAVYYCAAVPWSGEYDYWGQGTQVTVSS” the value was “low polyreactivity”. With “QVQLVESGGGLVQAGGSLRLSCAASGRIFTYNAMGWYRQAPGKEWELVAVISRRGGSTYYADSVKGRFTISRDNAKNSVYLQINSLKPDDTAVYYWAADLPSYPYEFWGQGTQVTVSS”, the “polyreactivity (PSR sort gate)” value was “low polyreactivity”. For “QDQLVESGGGLVQAGGSLRLSCAASGRIFCSYAMGWYRQAPGKERELVAAISRRGGGTYYADSVKGRFTISRENAKNTVYLQMNSLKPEDTAFYYCAKDWYGRYYYWGQGTQVTVSS”, the “polyreactivity (PSR sort gate)” value is “high polyreactivity”.

As for “QVQLVESGGGLVQAGGSLRLSCAASGRIFSYYAMGWYRQAPGKERELVAAISYSTTSTYYADSVKGRFTISRDNAKNTVYLQMNSLKPEDTAVYYCAAEFQPGSYTPTYDYWGQGTQVTVSS”, the “polyreactivity (PSR sort gate)” value is “low polyreactivity”. On to “QVQLVESGGGLVQAGGSLRLSCAASGIIFNYYAMGWYRQAPGKERELVAAITRGGRTNYADSVKGRFTISRDNAKNTVYLQMNSLKPEDTAVYYCNAPAFYTYKSFYAHSGYDYWGQGTQVTVSS”, for which the “polyreactivity (PSR sort gate)” value was “high polyreactivity”. For “QVQLVESGGGLVQAGGSLRLSCAASGLNLAQYVMGWYRQAPGKERELVAAITWRGGGTYYADSVKGRFTISRDNAKYTVYLQMNSLKPEDTAVYYCNAVLYDGYVYNPGSTDDVDYWGQGTLVTVSS”, the “polyreactivity (PSR sort gate)” value is listed as “high polyreactivity”. As for “QVQLVESGGGLVQAGGSLRLSCAASGRTFWSYAMGWYRQAPGKEREFVAAISYSGSSTYADSVKGRFTISRDNAKNTVYLQMNSLKPEDTAVYYLLRGQGTQVTVSS”, the “polyreactivity (PSR sort gate)” value is “low polyreactivity”.

As for “QVQLVESGGGLVQAGGSLRLSCAASGSTFSYAMGWYRQAPGKERELVAAITTSGGSTYYADSVKGRFTISRDNAKNTVYLQMNSLKPVDTAVDYCARERYYRRFYRPRRYDYWGQGTQVTVSS”, the “polyreactivity (PSR sort gate)” value is listed as “low polyreactivity”.

As for “QVQLVESGGGLVQAGGSLRLSCAASGFIFANNAMVWYRQAPGKERELVAVISQRGGRTYYADSVKGRFTISRDNAKNTVYLQMNSLKPADTAVYYCAASYSIAYVSPRNWHDYWGQGTQVTVSS”, the “polyreactivity (PSR sort gate)” value is recorded as “low polyreactivity”.

With “QVQLVESGGGLVQAGGSLRLSCAASGSTFQYYAMGGYRQAPGKERELVAGITWRDGNTYYADTVKGRFTISRDNANNTVYLQMNSLKPEDTAVYYCAARRYFVIYYPYDYWGQGTQVTVSS”, the “polyreactivity (PSR sort gate)” value is reported as “low polyreactivity”. In the case of “QVQLVESGGGLVQAGGSLRLSCAASGSILKVYAMGWYRQAPGKERELVAGITRSGVRTNYADSVKGRFTISRDNAKNTVYLQMNSLKPEDTAVCYCAAVGYVYRTYWYTRQSTYEYWGQGTQVTVSS”, the “polyreactivity (PSR sort gate)” value was “high polyreactivity”.

Consider “QVQLVESGGGLVQAGGSLRLSCAATGIFVVYAMGWYREAPGKERELVAAIRSDASTNYADSVKGRFTISRDNAKNTVYLQMNILKPEDTAVYYCNTAQLVSDEFDYWGQGTQVTVSS”, for which the “polyreactivity (PSR sort gate)” value is given as “low polyreactivity”. For “QFQLVESGGGLVQAGGSLRLSCASSGIIFKRYAMGWYRQAPGNERELVAAISTSGSTYYADSVKGRFTISRDNAKNTVYLQMNSLKPEDTAVYYCAAGRWWRYFTWHGYWGQGTQVTVSS” the value was “high polyreactivity”; for “QVQLVESGGGLVQAGGSLRLSCDASGSTFGIYAMGCYRQAPGKERELVAANSRSGDSTYYADSVKGRFTISRDNAKNTVDLQMNSLKPEDTAVYYCAADSYRLRYWAVTTHRVQYDYWGQGTQVTVSS”, “low polyreactivity”; for “QVQLVESGGGLVQAGGSLRLSCAASGFTFWGYTMGWYRQAPGKERELVAAITSTGSTYYAYSVKGRFTISRDNAKNTVYLQMNSLKPEDTSVYYCATARSYLTYSYHYDYWGQGTQVTVSS”, “low polyreactivity”. Turning to “QVQLVESGGGLVQAGGSLRISCAASGRNLSVYAMGWYRPAPGKERELVATITGRGGGTYYADSVKGRFTISRDNAKNTVYLQMNRLKPEDTAVYYCAADLVDFWYQITTHYDYWGQGTEVTVSS”, the “polyreactivity (PSR sort gate)” value was “low polyreactivity”. Take “QVQLVESGGGLVQAGGSLRLSCAASGSTFVTYAMGWYRQAPGKERELVATITTSGGSTYYADSVKGRFTISRDNAKNTVYLQMNSLKPEDTAVYYCAADYYSNYSRFDYWGQGTQVTVSS”: the “polyreactivity (PSR sort gate)” value was “low polyreactivity”. For “QVQLVESGGGLVQAGGSLRLSCAASGITFGSYAMGWYRQAPGKERELVAAIRWRGGNTYYADSVKGRFTISRDNAKNTVYLQMNSLKPEDTAVYYCAARRYGYRYDQPYSNDYWGQGTLVTVSS”, the “polyreactivity (PSR sort gate)” value is “low polyreactivity”. In the case of “QVQLVESVGGLVQAGGSLPLSGAASGSILGFNAMGWSRQAPGKDRELVASITTSGGSTYFADSVKGRFTISRDNAKNTVYLQMNSLKPEDTAVYYCAAYRRYQFVTYYYWGQGTQVTVSS”, the “polyreactivity (PSR sort gate)” value is “high polyreactivity”. Take “QVQLVESGGGLVQAGGSLRLSCAASGSIFNGNAMGWYRQAPGKERELVAAITRRGGRTYYADSVKGRFTISRDNAKNTVYLQMNSLKPDDTAVYYCNAYSKAVQGGYDYWGQGTQVTVSS”: the “polyreactivity (PSR sort gate)” value is given as “high polyreactivity”. With “QVQPQESGGGPVQACGSLRLSCAASGNILDADILGWYRLVPGIERELVASITDGGSTNYAESVKGRFTIRRDNAKNTVYLQMNSLIPEDTAVYYCAVWSLGRWRHYYWGQGTQVTVSS”, the “polyreactivity (PSR sort gate)” value is on record as “low polyreactivity”. “QGQLVEAGGGLVQAGGSLRLSCAASGNTFKKYARGWYRQAPGKERELVAAISNGGSTTYADSVKGRFTISLDTAKNTVYLQMNSLKPEDTAVYYCNAGRPYGTQKRYDYWGQGTQVTVSS”: the “polyreactivity (PSR sort gate)” value is recorded as “low polyreactivity”. For “QVQLVESGGGLVQAGGSLRLSCAASGFTFSYSAMGWYRPAPGKERELVAAISSGGRTYYADSVKGRFTISRDNAKNTVYLQMNSLKPEDTAVYYCNAEPDQYTLRSITNDEDYWGQGTQVTVSS” the value was “low polyreactivity”; for “QVQLVESGGGLVQAGGSLRLSCAASGIIFGWYAMGWYRPAPGKERELVAGISIGGSTYYADSVKGRFTISRDNANNTVYLQMNSLKPEDTAVYYCAADSYFVLPWSDYWGQGTQVTVSS”, “high polyreactivity”. For “QVQLVESGGGLVQAGGSLRLSCAASGIIFYDYAMGWYRQAPGKERELVAAITSSGGSTYYADSVKGRFTISRDNAKNTVYLQMNSLKPEDTAVYYCAARTRSYWSTTYYYWGQGTQVTVSS”, the “polyreactivity (PSR sort gate)” value is given as “high polyreactivity”. Turning to “QVQLEESGGGLVQAGRSLRLSCAASGRIFWRYVMGWYRQAPGKERELVAAINRNGDNTSYADSVKGRFTISRDTAKNTVYLQMNSLKPEHTEVHYCNADWWWGYGYWGQGTQVSVSS”, the “polyreactivity (PSR sort gate)” value is “low polyreactivity”.

For “QVQLQESSGGLVQAGGSLRMSCAASGTNFHFHIMGWYRQAPGKEREFVAAISYGTSTYYADSVKGRFTISRDNAKNTVYLQMNSQKPEDTAVYYCAVYDYLEVYCWYWGQGTQVTVSS”, the “polyreactivity (PSR sort gate)” value is listed as “low polyreactivity”. Turning to “QVQRVESAGGLVQAGGSLRISCAASGSTLYKYAMGWYRQAPGKERELVAAISWSGSSTYYADSVKGRFTISRDNAKNTVYLQMNSLKPVDTAVYYCAAYPRPYIVYTDGYVWYEFDYWGQGTQVTVSS”, the “polyreactivity (PSR sort gate)” value is on record as “low polyreactivity”.
